Experimental data as given in PMC4621513.

Biological target: APOBEC3G (A3G) protein, Q9HC16
Experiment: AFM topographic imaging (protein volume); A3G mixed 2:1 with hybrid DNA substrate (418 bp duplex with 69 nt ssDNA overhang, deaminase specific or nonspecific) in 50 mM HEPES pH 7.5, 100 mM NaCl, 5 mM MgCl2, 1 mM DTT, 15 min at 37 °C; deposited on APS-mica, imaged in air; protein volume converted to mass; stoichiometry of A3G on the ssDNA
Conditions: remark: other sources report otherwise

stoichiometry N: 2
B1: APOBEC3G (A3G) protein, Q9HC16 1-384 (enzyme)
chain: MKPHFRNTVERMYRDTFSYNFYNRPILSRRNTVWLCYEVKTKGPSRPPLDAKIFRGQVYSELKYHPEMRFFHWFSKWRKLHRDQEYEVTWYISWSPCTKCTRDMATFLAEDPKVTLTIFVARLYYFWDPDYQEALRSLCQKRDGPRATMKIMNYDEFQHCWSKFVYSQRELFEPWNNLPKYYILLHIMLGEILRHSMDPPTFTFNFNNEPWVRGRHETYLCYEVERMHNDTWVLLNQRRGFLCNQAPHKHGFLEGRHAELCFLDVIPFWKLDLDQDYRVTCFTSWSPCFSCAQEMAKFISKNKHVSLCIFTARIYDDQGRCQEGLRTLAEAGAKISIMTYSEFKHCWDTFVDHQGCPFQPWDGLDEHSQDLSGRLRAILQNQEN
